Common to all, as to settings: remark: other sources report otherwise
Test [1] concerns the target prefusion-stabilized S trimer of the Delta variant (SARS-CoV-2), P0DTC2.
In test [2] the target is S1 monomer of SARS-CoV-2 Delta (SARS-CoV-2), P0DTC2.
For test [3], the target named is prefusion-stabilized S trimer of the Omicron (B.1.529) variant (SARS-CoV-2), P0DTC2.

B1: 3-31 (Fc fusion)
chain: EVQLVESGGGLVQPGGSLRLSCAASGSTFSINAMGWFRQAPGKEREFVAGITSSGGYTNYADSVKGRFTISADNSKNTAYLQMNSLKPEDTAVYYCAADGVPEYSDYASGPVWGQGTLVTVSS
As to B1, the Kd is less than 0.016 nM in test [1], 1.1 nM in test [2] and 2.1 nM in test [3].

By Kd is commonly meant a measure of binding affinity in units of concentration. High values mean weaker binding, low ones tighter binding.
